Test results reported in patent US20140087995A1 (published 2014).
Residue numbers refer to the chain shown, from its start. Blank lines part the entries; values can stand above or below the binder they belong to. Numbered stars: 1 amine (or outer) side, 2 acyl side, 3 side chain; on linkers, the order of the positions; unused ones are H or OH. Bridge positions count the residues as written; N and C are the ends. Side chains are listed from the residue outwards. Ends that are not written are not given here. * marks the point of attachment. C20 diacid = O=C(O)CCCCCCCCCCCCCCCCCCC(=O)*; γGlu = O=C(O)[C@H](CCC(=O)[*:2])N[*:1]

Tests used:
[1] = molecular target: T1, human calcitonin receptor (human, UniProt P30988 25-474); assay: SPA radioligand competition (125I-calcitonin), membranes of BHK cells with human calcitonin receptor
T1 construct: whole, on cells; Assay used cell membranes of the transfected BHK cells; also called hCTR; hCT
T1 sequence (looked up): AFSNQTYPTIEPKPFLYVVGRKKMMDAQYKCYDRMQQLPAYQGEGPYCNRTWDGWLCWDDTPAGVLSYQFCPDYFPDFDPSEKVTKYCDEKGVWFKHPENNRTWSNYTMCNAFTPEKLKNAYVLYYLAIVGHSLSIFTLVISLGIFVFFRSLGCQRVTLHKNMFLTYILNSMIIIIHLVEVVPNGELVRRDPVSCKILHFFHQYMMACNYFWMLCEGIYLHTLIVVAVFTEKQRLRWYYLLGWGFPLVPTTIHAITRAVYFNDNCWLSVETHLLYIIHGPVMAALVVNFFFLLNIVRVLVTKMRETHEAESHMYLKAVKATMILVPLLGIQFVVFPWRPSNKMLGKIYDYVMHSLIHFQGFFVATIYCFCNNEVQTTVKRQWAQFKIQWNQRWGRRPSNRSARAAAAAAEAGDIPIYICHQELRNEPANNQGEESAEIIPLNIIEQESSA
Method in brief: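 BHK hCTR membranes 35 ng/μL + SPA beads 0.05 mg/well; buffer 50 mM Hepes pH 7.4, 1 mM CaCl2, 5 mM MgCl₂, 0.1% OA, 0.02% Tween20. 120 min, 25° C., shaking. Scintillation count; IC50 by one-site binding competition.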

[2] = molecular target: T1, human calcitonin receptor; assay: ratio IC50 hCTR / IC50 hAmylin-R of the two SPA competition assays; reference: human amylin receptor
Method in brief: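 Scintillation proximity competition binding on cell membranes at 35 ng/μL with SPA beads, in 50 mM Hepes pH 7.4, 1 mM CaCl2, 5 mM MgCl₂, 0.1% OA, 0.02% Tween20. Incubated 120 min at 25° C with shaking. IC₅₀ from one-site competition fit.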

human amylin receptor = molecular target: T2, human amylin receptor (human, UniProt P30988 25-474; O60896 24-148, limits assumed); assay: SPA radioligand competition (125I-rat amylin), membranes of BHK cells with human calcitonin receptor + RAMP-3
T2 construct: whole, on cells; Assay used cell membranes of the Amylin 3(a)/CRE-luc BHK cells; the complex is called the human amylin receptor; also called hAmylin-R; hAmylinR
T2 sequence (looked up) 1: T1 sequence (looked up)
T2 sequence (looked up) 2: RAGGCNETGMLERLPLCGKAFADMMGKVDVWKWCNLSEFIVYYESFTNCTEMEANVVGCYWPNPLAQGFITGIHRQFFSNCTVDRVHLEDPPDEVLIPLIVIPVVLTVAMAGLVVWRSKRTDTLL
Protocol: The binding assay was performed using scintillation proximity assay (SPA) beads (RPNQ0001) from PerkinElmer and cell membranes from the Amylin 3(a)/CRE-luc cells (as described in Assay (II)) were used. Membranes were prepared in the following way; the cells were rinsed with PBS and incubated with Versene for approximately 5 min before harvesting. The cells were flushed with PBS and the cell-suspension was centrifuged for 5 min at 1000 rpm. Cells were homogenized (ultrathurrax) in a buffer containing 20 mM Na-HEPES and 10 mM EDTA (pH 7.4) and centrifuged at 20.000 rpm for 15 min. The resulting pellet was resuspended, homogenized and centrifuged (20.000 rpm, 15 min) in a buffer containing 20 mM Na-HEPES and 0.1 mM EDTA (pH 7.4, buffer 2). The resulting pellet was resuspended in buffer 2 and protein concentration was measured (BCA protein Assay, Pierce). The homogenate was kept cold during the whole procedure. The membranes were kept at −80° C. until use. The assay was performed in a 384 well Optiplate (PerkinElmer) in a total volume of 40 ul. Membranes were mixed with SPA beads. Final concentration of membranes 35 ng/μL final and SPA beads was 0.05 mg/well. Test-compounds were dissolved in DMSO and further diluted in assay buffer (50 mM Hepes, pH 7.4, 1 mM CaCl2, 5 mM MgCl₂, 0.1% OA and 0.02% Tween20). […] The final mixture was incubated with shaking at 400 rpm for 120 min at 25° C. prior to centrifugation (1500 rpm, 10 min). Samples were analyzed on TopCounter™ (Packard). The IC₅₀ was calculated using (one site binding competition analysis) GraphPad Prism5 as a measure of receptor affinity.

[3] = molecular target: T3, human amylin receptor (amylin 3(a) receptor: human calcitonin receptor co-expressed with RAMP-3) (human, UniProt P30988 25-474; O60896 24-148); assay: cell-based or functional assay
T3 sequence (looked up) 1: T1 sequence (looked up)
T3 sequence (looked up) 2: T2 sequence (looked up) 2

[4] = molecular target: T4, human calcitonin receptor (human, UniProt P30988 25-474); assay: cell-based or functional assay
T4 sequence (looked up): T1 sequence (looked up)

[5] = molecular target: T3, human amylin receptor (amylin 3(a) …); assay: SPA competition binding, membranes of Amylin 3(a)/CRE-luc BHK cells, displacement of 125I-rat amylin (Assay V)
Method in brief: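 Membranes from BHK Amylin 3(a)/CRE-luc cells (35 ng/μL final) were mixed with SPA beads and test compounds in 50 mM Hepes pH 7.4 with 1 mM CaCl2, 5 mM MgCl₂, 0.1% OA and 0.02% Tween20. Incubation ran 120 min at 25° C with shaking; IC₅₀ came from one-site competition fitting.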

[6] = molecular target: T5, human amylin receptor (amylin 3(a) receptor: human calcitonin receptor with RAMP-3) (human, UniProt P30988 25-474; O60896 24-148, limits assumed); assay: cell-based or functional assay
T5 sequence (looked up) 1: T1 sequence (looked up)
T5 sequence (looked up) 2: T2 sequence (looked up) 2

[7] = molecular target: T6, human calcitonin receptor (human, UniProt P30988 25-474); assay: cell-based or functional assay; remark: listed apart in the source
T6 sequence (looked up): T1 sequence (looked up)

B1: N^α1-[2-[2-[2-[[2-[2-[2-[[(4S)-4-carboxy-4-(19-carboxynonadecanoylamino)butanoyl]amino]ethoxy]ethoxy]acetyl]amino]ethoxy]ethoxy]acetyl]-[Arg17,Pro21,Pro27]-h-am … (peptide)
peptide: KCNTATCATQRLANFLRHSSPNFGAIPSSTNVGSNTY
modifications: C20 diacid-gGlu-2xOEG on the alpha amino group of the N-terminal residue (Lys1); disulfide Cys2-Cys7; C-terminal amide
notes: Synthetic analogue; also called compound 24
IC50 [1]: 102 nM | Ratio hCT/hAmylin binding [2]: 90 | IC50 (human amylin receptor): 1.14 nM

B3: N^α1-[(4S)-4-carboxy-4-(19-carboxynonadecanoylamino)butanoyl]-[Arg17,Pro21,Pro27,Lys35]-h-amylin (peptide)
peptide: B1 peptide with N35K
modifications: C20 diacid-gGlu on the alpha amino group of the N-terminal residue (Lys1); disulfide Cys2-Cys7; C-terminal amide
notes: Synthetic analogue; also called compound 34
IC50 [1]: 73.4 nM | Ratio hCT/hAmylin binding [2]: 64.4 | IC50 (human amylin receptor): 1.14 nM

B4: N^ε1-[(4S)-4-carboxy-4-[[(4S)-4-carboxy-4-(19-carboxynonadecanoylamino)butanoyl]amino]butanoyl]-[Asp14,Arg17,Pro21,Pro27,Asp35]-h-amylin (peptide)
peptide: K([γGlu-γGlu-C20 diacid])CNTATCATQRLADFLRHSSPNFGAIPSSTNVGSDTY-NH2
modifications: disulfide 2-7; N-terminus assumed
SMILES: CC[C@H](C)[C@H](NC(=O)[C@H](C)NC(=O)CNC(=O)[C@H](Cc1ccccc1)NC(=O)[C@H](CC(N)=O)NC(=O)[C@@H]1CCCN1C(=O)[C@H](CO)NC(=O)[C@H](CO)NC(=O)[C@H](Cc1c[nH]cn1)NC(=O)[C@H](CCCNC(=N)N)NC(=O)[C@H](CC(C)C)NC(=O)[C@H](Cc1ccccc1)NC(=O)[C@H](CC(=O)O)NC(=O)[C@H](C)NC(=O)[C@H](CC(C)C)NC(=O)[C@H](CCCNC(=N)N)NC(=O)[C@H](CCC(N)=O)NC(=O)[C@@H](NC(=O)[C@H](C)NC(=O)[C@@H]1CSSC[C@H](NC(=O)[C@@H](N)CCCCNC(=O)CC[C@H](NC(=O)CC[C@H](NC(=O)CCCCCCCCCCCCCCCCCCC(=O)O)C(=O)O)C(=O)O)C(=O)N[C@@H](CC(N)=O)C(=O)N[C@@H]([C@@H](C)O)C(=O)N[C@@H](C)C(=O)N[C@@H]([C@@H](C)O)C(=O)N1)[C@@H](C)O)C(=O)N1CCC[C@H]1C(=O)N[C@@H](CO)C(=O)N[C@@H](CO)C(=O)N[C@H](C(=O)N[C@@H](CC(N)=O)C(=O)N[C@H](C(=O)NCC(=O)N[C@@H](CO)C(=O)N[C@@H](CC(=O)O)C(=O)N[C@H](C(=O)N[C@@H](Cc1ccc(O)cc1)C(N)=O)[C@@H](C)O)C(C)C)[C@@H](C)O
notes: Synthetic analogue; also called compound 2
IC50 [1]: 19.5 nM | Ratio hCT/hAmylin binding [2]: 47.5 | IC50 (human amylin receptor): 0.411 nM

Second part, the binder after the results:

IC50 [1]: 15.5 nM | Ratio hCT/hAmylin binding [2]: 26 | IC50 (human amylin receptor): 0.597 nM
B2: N^α1 N^α1-[(4S)-4-carboxy-4-[[(4S)-4-carboxy-4-(19-carboxynonadecanoylamino)butanoyl]amino]butanoyl]-[Glu14,Arg17,Pro21,Pro27]-h-amylin (peptide)
peptide: {C20 diacid-γGlu-γGlu}-KCNTATCATQRLAEFLRHSSPNFGAIPSSTNVGSNTY-NH2
modifications: disulfide 2-7
SMILES: CC[C@H](C)[C@H](NC(=O)[C@H](C)NC(=O)CNC(=O)[C@H](Cc1ccccc1)NC(=O)[C@H](CC(N)=O)NC(=O)[C@@H]1CCCN1C(=O)[C@H](CO)NC(=O)[C@H](CO)NC(=O)[C@H](Cc1c[nH]cn1)NC(=O)[C@H](CCCNC(=N)N)NC(=O)[C@H](CC(C)C)NC(=O)[C@H](Cc1ccccc1)NC(=O)[C@H](CCC(=O)O)NC(=O)[C@H](C)NC(=O)[C@H](CC(C)C)NC(=O)[C@H](CCCNC(=N)N)NC(=O)[C@H](CCC(N)=O)NC(=O)[C@@H](NC(=O)[C@H](C)NC(=O)[C@@H]1CSSC[C@H](NC(=O)[C@H](CCCCN)NC(=O)CC[C@H](NC(=O)CC[C@H](NC(=O)CCCCCCCCCCCCCCCCCCC(=O)O)C(=O)O)C(=O)O)C(=O)N[C@@H](CC(N)=O)C(=O)N[C@@H]([C@@H](C)O)C(=O)N[C@@H](C)C(=O)N[C@@H]([C@@H](C)O)C(=O)N1)[C@@H](C)O)C(=O)N1CCC[C@H]1C(=O)N[C@@H](CO)C(=O)N[C@@H](CO)C(=O)N[C@H](C(=O)N[C@@H](CC(N)=O)C(=O)N[C@H](C(=O)NCC(=O)N[C@@H](CO)C(=O)N[C@@H](CC(N)=O)C(=O)N[C@H](C(=O)N[C@@H](Cc1ccc(O)cc1)C(N)=O)[C@@H](C)O)C(C)C)[C@@H](C)O
notes: Synthetic analogue; also called compound 15

hAmylin-R funct. EC50 (pM), CRE-luciferase reporter in BHK amylin 3(a) receptor cells [3]: 5170 pM | Ratio hCT/hAmylin funct. (hCTR EC50 against hAmylin-R EC50) [4]: 17.3 | hCTR funct. EC50 (pM), CRE-luciferase reporter in BHK calcitonin (a) receptor cells [4]: 89600 pM | IC50 [5]: 1.19 nM
B5: N^ε1-[(4S)-4-carboxy-4-[[(4S)-4-carboxy-4-(19-carboxynonadecanoylamino)butanoyl]amino]butanoyl]-[Glu14,Arg17,Pro23,Pro34,Glu35]-h-amylin (peptide)
peptide: K([γGlu-γGlu-C20 diacid])CNTATCATQRLAEFLRHSSNNPGAILSSTNVGPETY-NH2
modifications: disulfide 2-7 (inferred)
notes: Synthetic acylated analogue of human amylin

hAmylin-R funct. EC50 (pM) [6]: 773 pM | Ratio hCT/hAmylin funct. [7]: 8.5 ratio
B6: N^ε1-[(4S)-4-carboxy-4-[[(4S)-4-carboxy-4-(19-carboxynonadecanoylamino)butanoyl]amino]butanoyl]-[Glu14,Arg17,Pro21,Pro27,Arg34]-h-amylin (peptide)
peptide: K([γGlu-γGlu-C20 diacid])CNTATCATQRLAEFLRHSSPNFGAIPSSTNVGRNTY-NH2
modifications: disulfide 2-7; N-terminus assumed
SMILES: CC[C@H](C)[C@H](NC(=O)[C@H](C)NC(=O)CNC(=O)[C@H](Cc1ccccc1)NC(=O)[C@H](CC(N)=O)NC(=O)[C@@H]1CCCN1C(=O)[C@H](CO)NC(=O)[C@H](CO)NC(=O)[C@H](Cc1c[nH]cn1)NC(=O)[C@H](CCCNC(=N)N)NC(=O)[C@H](CC(C)C)NC(=O)[C@H](Cc1ccccc1)NC(=O)[C@H](CCC(=O)O)NC(=O)[C@H](C)NC(=O)[C@H](CC(C)C)NC(=O)[C@H](CCCNC(=N)N)NC(=O)[C@H](CCC(N)=O)NC(=O)[C@@H](NC(=O)[C@H](C)NC(=O)[C@@H]1CSSC[C@H](NC(=O)[C@@H](N)CCCCNC(=O)CC[C@H](NC(=O)CC[C@H](NC(=O)CCCCCCCCCCCCCCCCCCC(=O)O)C(=O)O)C(=O)O)C(=O)N[C@@H](CC(N)=O)C(=O)N[C@@H]([C@@H](C)O)C(=O)N[C@@H](C)C(=O)N[C@@H]([C@@H](C)O)C(=O)N1)[C@@H](C)O)C(=O)N1CCC[C@H]1C(=O)N[C@@H](CO)C(=O)N[C@@H](CO)C(=O)N[C@H](C(=O)N[C@@H](CC(N)=O)C(=O)N[C@H](C(=O)NCC(=O)N[C@@H](CCCNC(=N)N)C(=O)N[C@@H](CC(N)=O)C(=O)N[C@H](C(=O)N[C@@H](Cc1ccc(O)cc1)C(N)=O)[C@@H](C)O)C(C)C)[C@@H](C)O
notes: also called compound 88
